# Experimental data taken from patent US20080085863A1 (WISCONSIN ALUMNI RESEARCH FOUNDATION, published 2008).
# T1: Flag-tagged recombinant bone morphogenetic protein-1 (BMP-1) (UniProt P13497-2 121-730, limits assumed)
# T1 construct: Prepared as in Scott et al. 1999 (cited); In the Ki and complex-formation experiments it was metabolically labelled with 35S and purified on an anti-FLAG M2 column; also called 35S-radiolabeled BMP-1; recombinant BMP-1; not shown: Flag tag
# T1 sequence (looked up): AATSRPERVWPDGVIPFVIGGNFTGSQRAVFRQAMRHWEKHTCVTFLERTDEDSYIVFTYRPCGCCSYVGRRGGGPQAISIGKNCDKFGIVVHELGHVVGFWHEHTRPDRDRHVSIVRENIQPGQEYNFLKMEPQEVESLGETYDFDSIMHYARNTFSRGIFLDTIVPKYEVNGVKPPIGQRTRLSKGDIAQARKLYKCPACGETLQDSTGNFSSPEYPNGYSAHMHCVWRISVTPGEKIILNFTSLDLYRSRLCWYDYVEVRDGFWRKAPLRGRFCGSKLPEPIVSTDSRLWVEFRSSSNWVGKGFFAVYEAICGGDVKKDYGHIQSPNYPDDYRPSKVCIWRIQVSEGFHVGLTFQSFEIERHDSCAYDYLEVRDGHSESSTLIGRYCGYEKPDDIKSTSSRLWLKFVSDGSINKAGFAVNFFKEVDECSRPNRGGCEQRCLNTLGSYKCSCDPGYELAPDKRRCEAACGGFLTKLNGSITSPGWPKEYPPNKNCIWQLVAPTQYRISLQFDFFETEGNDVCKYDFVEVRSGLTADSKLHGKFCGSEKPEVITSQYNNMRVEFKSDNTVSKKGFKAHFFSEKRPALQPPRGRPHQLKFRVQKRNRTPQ
# Legend:
# [1] = molecular target: T1, Flag-tagged recombinant bone …; test: time course of covalent complex formation of 40 nM 35S-BMP-1 with increasing b-α2M, SDS-PAGE densitometry (method of Enghild et al.)
# Procedure: (§1) 40 nM ³⁵S-labeled BMP-1 was incubated with 20, 40, 80, 160, and 240 nM plasma α₂M, or recombinant wild type α₂M or with 5, 10, 20, 40, and 80 nM b-α₂M at 37° C. in 50 mM Tris-HCl, pH 7.5, 100 mM NaCl and 10 mM CaCl₂. Reactions were stopped at 10, 30, 60, 90 and 120 minutes (plasma α₂M and recombinant wild type α₂M), or at 2, 5, 10, 20 and 30 minutes (b-α₂M) by adding. SDS-PAGE sample buffer and boiling 5 minutes at 95° C. Protein samples were separated on 7.5% acrylamide SDS-PAGE gels, which were then treated with EN³HANCE (DuPont) and exposed to film. Percentages of BMP-1 incorporated into high molecular weight complexes were determined by densitometry and kinetic parameters were determined essentially via the method of Enghild J, et al, “Interaction of human rheumatoid synovial collagenase (matrix metalloproteinase 1) and stromelysin (matrix metalloproteinase 3) with human alpha 2-macroglobulin and chicken ovostatin. Binding kinetics and identification of matrix metalloproteinase cleavage sites,” J. Biol. Chem. 264:8779-8785 (1989).
# (§2) To obtain a quantitative comparison of the rates of interaction of BMP-1 with the various wild type and mutant forms of α₂M, we employed the methodology of Enghild et al., supra, which involves quantification of covalent proteinase-α₂M complex formation, subsequent to incubation of radiolabeled proteinase with α₂M.
# [2] = molecular target: T1, Flag-tagged recombinant bone …; test: cell-based or functional assay
# [3] = molecular target: T1, Flag-tagged recombinant bone …; test: ratio of second order rate constants, 35S-BMP-1 complex formation
# Procedure: as §1, §2
binder,measurement,setting,value
"recombinant mutant α2-macroglobulin with the native bait region replaced by sequences flanking the human probiglycan BMP-1 cleavage site (b-α2M) (other, One subunit is given; cross-linking showed that the protein forms tetramers. The internal thioester and glycosylation are not carried by the letters., also called recombinant b-α2M; modified α2M) DYKDDDDKSVSGKPQYMVLVPSLLHTETTEKGCVLLSYLNETVTVSASLESVRGNRSLFTDLEAENDVLHCVAFAVPKSSSNEEVMFLTVQVKGPTQEFKKRTTVMVKNEDSLVFVQTDKSIYKPGQTVKFRVVSMDENFHPLNELIPLVYIQDPKGNRIAQWQSFQLEGGLKQFSFPLSSEPFQGSYKVVVQKKSGGRTEHPFTVEEFVLPKFEVQVTVPKIITILEEEMNVSVCGLYTYGKPVPGHVTVSICRKYSDASDCHGEDSQAFCEKFSGQLNSHGCFYQQVKTKVFQLKRKEYEMKLHTEAQIQEEGTVVELTGRQSSEITRTITKLSFVKVDSHFRQGIPFFGQVRLVDGKGVPIPNKVIFIRGNEANYYSNATTDEHGLVQFSINTTNVMGTSLTVRVNYKDRSPCYGYQWVSEEHEEAHHTAYLVFSPSKSFVHLEPMSHELPCGHTQTVQAHYILNGGTLLGLKKLSFYYLIMAKGGIVRTGTHGLLVKQEDMKGHFSISIPVKSDIAPVARLLIYAVLPTGDVIGDSAKYDVENCLANKVDLSFSPSQSLPASHAHLRVTAAPQSVCALRAVDQSVLLMKPDAELSASSVYNLLPEKDLTGFPGPLNDQDDEDCINRHNVYINGITYTPVSSTNEKDMYSFLEDMGLKAFTNSKIRKPKMCPQFWDFTLDDGPFMMNDEEASGADTSGVLDPDSVTPTYSAMVRKYFPETWIWDLVVVNSAGVAEVGVTVPDTITEWKAGAFCLSEDAGLGISSTASLRAFQPFFVELTMPYSVIRGEAFTLKATVLNYLPKCIRVSVQLEASPAFLAVPVEKEQAPHCICANGRQTVSWAVTPKSLGNVNFTVSAEALESQELCGTEVPSVPEHGRKDTVIKPLLVEPEGLEKETTFNSLLCPSGGEVSEELSLKLPPNVVEESARASVSVLGDILGSAMQNTQNLLQMPYGCGEQNMVLFAPNIYVLDYLNETQQLTPEIKSKAIGYLNTGYQRQLNYKHYDGSYSTFGERYGRNQGNTWLTAFVLKTFAQARAYIFIDEAHITQALIWLSQRQKDNGCFRSSGSLLNNAIKGGVEDEVTLSAYITIALLEIPLTVTHPVVRNALFCLESAWKTAQEGDHGSHVYTKALLAYAFALAGNQDKRKEVLKSLNEEAVKKDNSVHWERPQKPKAPVGHFYEPQAPSAEVEMTSYVLLAYLTAQPAPTSEDLTSATNIVKWITKQQNAQGGFSSTQDTVVALHALSKYGAATFTRTGKAAQVTIQSSGTFSSKFQVDNNNRLLLQQVSLPELPGEYSMKVTGEGCVYLQTSLKYNILPEKEEFPFALGVQTLPQTCDEPKAHTSFQISLSVSYTGSRSASNMAIVDVKMVSGFIPLKPTVKMLERSNHVSRTEVSSNHVLIYLDKVSNQTLSLFFTVLQDVPVRDLKPAIVKVYDYYETDEFAIAEYNAPCSKDLGNA",Ki,[1],36.4 nM
same,"pCP inhibitory activity, IC50",[2],1.88 nM
same,α2M inhibition of BMP-1 (fold enhancement over the native bait region),[2],~25 fold
same,Relative effectiveness (against recombinant α2M = 1),[3],23.7 fold
same,fold more effective in interacting with BMP-1 than wild type α2M from plasma (second order rate constants),[3],15.7 fold
